# Values quoted from earlier work as cited in publication PMC6596353.
# Biological target: ST2 (Homo sapiens) (UniProt Q01638)
# UniProt Q01638, sequence (Q01638 19-556): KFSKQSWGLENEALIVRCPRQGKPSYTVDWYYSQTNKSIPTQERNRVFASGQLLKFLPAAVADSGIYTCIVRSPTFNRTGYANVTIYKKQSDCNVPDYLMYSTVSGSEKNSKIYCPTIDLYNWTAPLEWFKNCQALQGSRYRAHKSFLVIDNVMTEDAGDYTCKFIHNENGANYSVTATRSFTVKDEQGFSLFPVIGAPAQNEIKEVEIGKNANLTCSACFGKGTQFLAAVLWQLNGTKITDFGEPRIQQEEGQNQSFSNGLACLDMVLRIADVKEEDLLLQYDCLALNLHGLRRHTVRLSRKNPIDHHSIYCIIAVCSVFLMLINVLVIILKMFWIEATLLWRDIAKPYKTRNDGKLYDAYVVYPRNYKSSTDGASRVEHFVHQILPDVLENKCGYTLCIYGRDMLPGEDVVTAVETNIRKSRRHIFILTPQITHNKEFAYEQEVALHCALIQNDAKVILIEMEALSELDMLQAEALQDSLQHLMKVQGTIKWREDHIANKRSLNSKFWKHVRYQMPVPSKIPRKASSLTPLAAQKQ
substance,measurement,value
IL-33 (from UniProt O95760),Kd,0.45 nM
